Source: patent US20230416360A1

Columns and labels:
[1] = molecular target: human CD22 (full length, on cells) (human) (UniProt P20273); experiment: FACS, CHO-K1-human CD22 2C4 cells
[2] = molecular target: human CD22-ECD-His (human) (UniProt P20273); experiment: ELISA, coated hCD22-ECD-His, antibody 0.01 nM
[3] = molecular target: human CD22 (full length, on cells) (human) (UniProt P20273); experiment: FACS, Raji cells
[4] = molecular target: human CD22-ECD-His (human) (UniProt P20273); experiment: ELISA, coated hCD22-ECD-His, antibody 10 nM
[5] = molecular target: human CD22-ECD-His (human) (UniProt P20273); experiment: ELISA, coated hCD22-ECD-His, antibody 0.001 nM
[6] = molecular target: cynomolgus monkey CD22 on peripheral blood B cells (cynomolgus monkey (Macaca fascicularis)); experiment: FACS, cynomolgus PBMC, CD20+ B cells, antibody 1 nM
[7] = molecular target: human CD22-ECD-His (human) (UniProt P20273); experiment: ELISA, coated hCD22-ECD-His, antibody 100 nM
[8] = molecular target: human CD22-ECD-His (human) (UniProt P20273); experiment: ELISA, coated hCD22-ECD-His, antibody 0.10 nM
[9] = molecular target: cynomolgus monkey CD22 on peripheral blood B cells (cynomolgus monkey (Macaca fascicularis)); experiment: FACS, cynomolgus PBMC, CD20+ B cells, antibody 100 nM
[10] = molecular target: cynomolgus monkey CD22 on peripheral blood B cells (cynomolgus monkey (Macaca fascicularis)); experiment: FACS, cynomolgus PBMC, CD20+ B cells, antibody 10 nM
[11] = molecular target: human CD22 (full length, on cells) (human) (UniProt P20273); experiment: FACS, CHO-K1-human CD22 1G5
[12] = molecular target: human CD22 (full length, on cells) (human) (UniProt P20273); experiment: FACS, CHO-K1-human CD22 2C4
[13] = molecular target: human CD22-ECD-His (human) (UniProt P20273); experiment: ELISA, coated hCD22-ECD-His, antibody 0.0001 nM
[14] = molecular target: human CD22-ECD-His (human) (UniProt P20273); experiment: ELISA, coated hCD22-ECD-His, antibody 0.00001 nM
[15] = molecular target: human CD22 (full length, on cells) (human) (UniProt P20273); experiment: FACS, CHO-K1-human CD22 1D9

## anti-hel-hIgG1 (negative control antibody against chicken egg lysozyme)
[1]
  Max MFI: 340
[2]
  OD450: 0.06
[3]
  Cell mean fluorescence density: 158
  Max MFI: 374
[4]
  OD450: 0.08
[5]
  OD450: 0.06
[6]
  Proportion of VHH-Fc antibody positive cells to B cells (%): 0%
[7]
  OD450: 0.15
[8]
  OD450: 0.06
[9]
  Proportion of VHH-Fc antibody positive cells to B cells (%): 3%
[10]
  Proportion of VHH-Fc antibody positive cells to B cells (%): 0%
[11]
  Cell mean fluorescence intensity: 66
[12]
  Cell mean fluorescence intensity: 66
[13]
  OD450: 0.06
[14]
  OD450: 0.05
[15]
  Cell mean fluorescence intensity: 66
